# In the DeepSol protein solubility set:
# Assay: soluble on expression in E. coli; label from the status in PepcDB or PDB records
row,Sequence,soluble on expression in E. coli
1,MGSDKIHHHHHHMNILITGMAGFIGHAVAKRLAAEGHDIVGIDNLNDYYDVSLKQARLDDLAAWPNVRFERLDLADRAGMERLFADTRFERVIHLAAQAGVRYSLDNPHVYAQSNLVGHLNVLEGCRHQQVPHLIYASSSSVYGQNAQVPFSTADAVDHPISLYAATKKANELMTHSYSHLYGIPATGLRFFTVYGPWGRPDMAMFKFTRAILADEPLPVFNHGDLSRDFTYIDDIVEGVVRIMQAIPEADPDSPGASPDQSTAPFALYNIGHGSPVALMDFVHALERATGRTARCDFKPMQPGDVPRTWADTDALFEKVGYRPQVGVDEGVARFVEWYRSFHGI,not soluble
2,MTLTMGFIGFGKSANRYHLPYLKTRNNIKVKTIFVRQINEELAAPYEERGVYFTTDLDELLNDKEIQVVTICTPAHTHYELAKKVILAGKSVIVEKPFCDTVEHAKELLALGREKGVVVMPYQNRRFDGDFLAVKQVVEQGFLGDIIEIESHIDYFRPGSITHEAPKEEGSFYSLGIHTMDRMISLFGRPNTVTYDIRNNEVEGAVDNYFDVGLHYGNQLKIKLKTNHIVAKDYPRFIVHGTNGSFIKYGEDQQENDLKAGIMPESAGFGEDSPMYYGIAKYRNANGDWIEKQIKTPLGDYGRFYDAAYDTIVNGAPKLVKDEEAVTNIEILENGFAAPSPSVYKLEALHLNELEHHHHHH,soluble
3,MGSDKIHHHHHHMNRGCFDIAVITDREAFQAILDEWNQLADINGYYTPWFCWEWFDLCLRHGETRALHILMVRSGGSLVAVAPFTVRSERYKGVVPARILSSIGGNRSPLKGIVFGDADENMQREVTTLVLEYLRTTFKNWDILELEPVAGSNDGNSIETLIERQGLSFRSYISCANRYCDVADASFDGFFERLPQSTRKDINYCRRRLEKNGSLVFQIITDAASLDQCLDVYDAVRAKSWKAAEKDREFNRELMHVAAGKGWLRLGILSYDGTPIAVQKWIVANGRAYIYDVLYDEEYKKHSPGKILTSMMFQHAIDNERVAYVDYLRGDEPYKEEWTPSLRNRIGIEAYNKSVLGCTASILMKKILPLVKKNTDSTNAHK,not soluble
4,MGSDKIHHHHHHMKYDIPTMTAEAVSLLKSLISIPSISREETQAADFLQNYIEAEGMQTGRKGNNVWCLSPMFDLKKPTILLNSHIDTVKPVNGWRKDPFTPREENGKLYGLGSNDAGASVVSLLQVFLQLCRTSQNYNLIYLASCEEEVSGKEGIESVLPGLPPVSFAIVGEPTEMQPAIAEKGLMVLDVTATGKAGHAARDEGDNAIYKVLNDIAWFRDYRFEKESPLLGPVKMSVTVINAGTQHNVVPDKCTFVVDIRSNELYSNEDLFAEIRKHIACDAKARSFRLNSSRIDEKHPFVQKAVKMGRIPFGSPTLSDQALMSFASVKIGPGRSSRSHTAEEYIMLKEIEEAIGIYLDLLDGLKL,not soluble
5,MSRLGYVMTKASAKNFKVYINGSARGYRNIIINGAKSWNPSPYLNTVTMGNDVKPNFTVSSSNTNKGSVLAVCNTTYYKSNKLIVKNEITLYKGFRSLSNNHKIETVAHEFGHGFGLGHVKTRNAIMLDKGFINKTKPQKLEHHHHHH,not soluble
6,MAPATERNRDAILAVLKDELRSPGTVLEIASGTGEHGAYFAPQLPDYFWQPSDPNEESRRSIAAWRSHVNAPNLGEAIAIDVTRSDWVESVPEFPQPVVAIAAINLIHISPWEATLGLFAGAKQLLSVDGLIYLYGAYKRGGQHTAPSNEAFDASLQARNPAWGARNLEDVTAVAEAEQFRLDRIVEMPSNNLSVCFRAIALEHHHHHH,not soluble
7,MGSSHHHHHHSSGLVPRGSHMYHHYHAFQGRKLTDQERARVLEFQDSIHYSPRYSDDNYEYRHVMLPKAMLKVIPSDYFNSEVGTLRILTEDEWRGLGITQSLGWEHYECHAPEPHILLFKRPLNYEAELRAATAAAQQQQQQQQQQQQQQQQHQTQSISNDMQVPPQIS,soluble
8,MNKAPHETRVVVGMSGGVDSSVAALLLKEQGYDVIGIFMKNWDDTDENGVCTATEDYEDVVRVCNQIGIPYYAVNFEKQYWDKVFTYFLNEYKAGRTPNPDVMCNKEIKFKAFLEHAMSIGADYIATGHYARVEFRDGEYKMLRGADPNKDQTYFLNQLGQAQLSKVMFPIGHLQKADVRRIAKEAGLATAGKKDSTGICFIGERDFKEFLSHYLPAQPGVMKTLDGEVKGRHDGVMYYTIGQRHGLGIGGSGEPWFVVGKDVRENVLYVAQGFENEYLYSTSLKAVDVNWVSDRKPEAPFRCTAKFRYRQPDVGVTVHPLADGGVEVVFDAPARAVTPGQAVVFYNGEECLGGGTIDEVFRNGEKLWYVG,not soluble
9,MNATPASADDLIVIGKIYSVHGVRGEVKVYSFTDPIGNLLDYKTWTLRREGSVEKQVELVSGRLQSKFLVVKLKGLDDREEARLLSGYEICVPRNLFPDLDDGEYYWYQLEGLKVIDQLGQLLGKIDHLLETGSNDVMVVKPCAGSLDDRERLLPYTEQCVLAIDMAAGEMKVEWDADFLEHHHHHH,soluble
10,MAHHHHHHMDCQALAKSLEQMNHLHNVKYLEAKDLTDFNQKSAYYICHQIAEKQLSKEGGHVVIGLSGGKTPIDVYKNIALVKDIKIDTSKLIFFIIDERYKRDDHKFSNYNNIKFLFESLKINEKEQLYRPDTSKNIVECVRDYNEKIKNMVKKYTKVDIAILGMGSDFHIASLFPNIFFNIYMNNYQNSYIYDESSIKVANSNDTSDNDNLDLLKEYVYFTTTNNFDVRKRITVSLDLLGNASSKIFLLNSTDKLDLWKNMLLKSYVDVNYCLYPAVYLIDSMNTTVVTCGYTNYPQMLEDIYVSNSSLS,soluble
11,MEKLYDVIVVGAGTSGMMAAISAAEQGARVLLIEKNKKAGKKLLMTGGGRCNVTNNRPVDDLIAHIPGNGKFLYSTFAQWNNFDIMNFFESQGVHLKEEDHGRMFPVTNKSKTIIEALLNRLKELDVTLLFSTRVEKLIHKEHKIYGIRTEFEEFHAPAIILTTGGRTYPSTGSTGDGYKIVKRVGHTVTPLYATESPLISDEPYIQEKTLQGLSLQDITLRVLNKKGRVLTEHTMDLLFTHFGISGPAALRCSSFVNKELEKTGEPVTLSLDCFPTQTKQELIHILTEKSKATKKNLVNAWHGILPERLLVFFLERLEMDHLTGQQASQKQIQDFVQLCKEFKLSINKTFPIEKSFVTGGGVSLKEIYPKTLESKIIDGLYFAGELLDVNGYTGGFNITAAFATGHVAGMNAGQRA,soluble
12,NSESKSTPKRLHVSNIPFRFRDPDLRQMFGQFGKILDVEIIFNERGSKGFGFVTFENSADADRAREKLHGTVVEGRKIEVNNATARVMTN,soluble
13,LSNFQGKVMMTVNATDVTDVITIPTAAGKNLCIVRAMDVGYMCDDTITYECPVLSAGNDPEDIDCWCTKSAVYVRYGRCT,soluble
14,GMGSLAEWYQRIPTPDDLTRVESLFANMQAQFPQLKLEFKWNQPMFTDHGTFIMGFNPSKKHLAVAIEPQTMTRFIPQIDKAGYDHSQIIRFPWHKPLDEQLIHDLIAYTIDQKKDATTFWQR,soluble
15,MGSDKIHHHHHHMHSLTPEYLAALCFDGTQVATLRTLGEYQGKQQLYAAQSPEALKGLRQIAVVESTESSNRLEGVVVAPSRLKSLVIRNATPKSRSEQEIAGYRDALALIHESAAHMPFSEGVVLQLHTLLYRYMPQAGGRWKATNNDIIERHPDGTSRLRFQPVASHLTPMAMADLTGRYATALDQHLADPLVLVPLAMLDLLCIHPFPDGNGRMSRLLTLLLLYHFDYAVGRYISLERIFEETKESYYETLEASSQGWYQGQHDVKPWLDYFWGALLRAYREFEERVGTIERGRGSKGDRVRAEVLGRSLPFSISEIEEACPGVSRDMVRLVLRAMKSEGLIESTGKGRGAKWIKQG,not soluble
16,MGSDKIHHHHHHMKYYYKDGEGFNSKGVFIRVGSTKRVASFDEIQRMIRSHSSNDFELISIDRDDLTFEYIESRFKEKGIKFDVYALSLIGKDNKYNNAALLLSDQNPTISKFAVFQGTDVSVFLDKKEFTGSILKQLDEILYFASLSNRKRITISGKPGREEYLDIPKRALREAIVNCYCHRDYTLSGDVKIEFYDDRVQIFSPGSLPDGLTLENIKMGMVAKRNKIIVNTLDKIDVIENYASGVRRIFEDYADFTKQPEYYISNNGVIVTLFNRNYEAQNEAQNEAQILKLDNQKRIEKILELIKENKNITRSNLKDILGVSKSTIERDISKLKEEDKLEYIGSSRNGYWKVKNN,not soluble
17,MSLKYVIGIDLGTSAVKTILVNQNGKVCAETSKRYPLIQEKAGYSEQNPEDWVQQTIEALAELVSISNVQAKDIDGISYSGQMHGLVLLDQDRQVLRNAILWNDTRTTPQCIRMTEKFGDHLLDITKNRVLEGFTLPKMLWVKEHEPELFKKTAVFLLPKDYVRFRMTGVIHTEYSDAAGTLLLHITRKEWSNDICNQIGISADICPPLVESHDCVGSLLPHVAAKTGLLEKTKVYAGGADNACGAIGAGILSSGKTLCSIGTSGVILSYEEEKERDFKGKVHFFNHGKKDSFYTMGVTLAAGYSLDWFKRTFAPNESFEQLLQGVEAIPIGANGLLYTPYLVGERTPHADSSIRGSLIGMDGAHNRKHFLRAIMEGITFSLHESIELFREAGKSVHTVVSIGGGAKNDTWLQMQADIFNTRVIKLENEQGPAMGAAMLAAFGSGWFESLEECAEQFIREAAAFYPKAQNVQKYKTLFDLYKNIYTHTKDLNTALKSFRKNEGHHHHHH,soluble
18,ISDVKFTVRGNITYSKNEIIERDEENNVYAYQMKKGYRVNQNRGLIALGLFKDYDDIRNSPTQKYGPVMPGDIKYKDVNGDGVVNDGDIVAIGSTSKPNLIYGLGLSATWKGLDVSLHFQGAGKSQFFTYGKCIWAFTEGQWGNILKGTLDNRWVDAETAQKLGIPANENPNASYPRLSYTDNGNGNTTIYEYKNNYRNSTYWLRNGSYVRLKTIDVGYTLPKKIVNKIHFNNVRIFMTGTNLLTWSSFKLWDPEMGASRGEQYPLAKSITLGLSVNL,not soluble
19,MKALERTVTVKGLAEKEVKANIAIWPINFTEVDNNLPKLYETVQLKTDKVVAFLKERGFSDSEITISLPSIEDRQAQGYVDPNVKYRYSAKVNLSVYTSQIDLMLSSRKQMINLVKEGIAIASQDYENRTEFLFTQLNDVKPTMVQEATQNAREVAEKFAKDSESRLGKIKSASQGQFTISDRDSSTPYIKQIRIVSTLTYYLNDLEHHHHHH,not soluble
20,MGSDKIHHHHHHMKTERLISYLRPGRWPSVWCPGCGNGIVLKAFLEAVDDLALPKEKVAVVSGIGCSSRATGYLDFNTLHTLHGRAIAFATGVKLAKPDFEVVVMGGDGDILSIGGNHFIHACRRNIDITVVIFNNMIYGMTGGQVSSTTPQYYQTSTTPLGAFEKPFDAVEIALSAGATFVARSTVYHYDHLVRVLKKALQHRGISVVDVLTNCHTYFGRYNGMPEPHQMMEYFKNNTCFLERPEEGKIKIGIFREEEKEDFLTVYRRLTRKEGAME,not soluble
21,MTAIRFDHVDVIFGTHTKEALKLLDQGLGRAEILKRTGQVLGVEDACLDVNRGEICVLMGLSGSGKSSLLRCINGLNKVSRGKLLIEHEGSQVDIANCSPATLKAMRTKRIAMVFQKFALMPWLTVAENVGFGLEMQGRPAAERKKLIDEKLELVGLSQWRDKRPDSLSGGMQQRVGLARALAMDGDILLMDEPFSALDPLIRQQLQDELLVLQRQLHKTIVFVSHDLDEALKIGTRIAIMKDGRIIQHGKPEEIVLSPADDYVRTFVAHTNPLNVLCGQSLMRGLDQCIRQNDEICFDQGRDCWIGLSEGDVLKGARQGSNVIDLQRWRQGDPVEKLRREPTLVDVSIRMRDALQIRYQTGHKLVLQEQDRVVGVLGDSELYHALLGKN,not soluble
